Results published in patent US20220025012A1 (HANMI PHARM, published 2022).
Square brackets hold non-standard residues; d marks the D form. Ends that are not written are not given here. αMeE = C[C@](N)(CCC(=O)O)C(=O)O

Columns and labels:
human glucagon receptor = human glucagon receptor (human, UniProt P47871 26-477); assay: cell-based or functional assay
human GLP-1 receptor = human GLP-1 receptor (human, UniProt P43220 24-463); assay: cell-based or functional assay

Sequence of human glucagon receptor (P47871 26-477): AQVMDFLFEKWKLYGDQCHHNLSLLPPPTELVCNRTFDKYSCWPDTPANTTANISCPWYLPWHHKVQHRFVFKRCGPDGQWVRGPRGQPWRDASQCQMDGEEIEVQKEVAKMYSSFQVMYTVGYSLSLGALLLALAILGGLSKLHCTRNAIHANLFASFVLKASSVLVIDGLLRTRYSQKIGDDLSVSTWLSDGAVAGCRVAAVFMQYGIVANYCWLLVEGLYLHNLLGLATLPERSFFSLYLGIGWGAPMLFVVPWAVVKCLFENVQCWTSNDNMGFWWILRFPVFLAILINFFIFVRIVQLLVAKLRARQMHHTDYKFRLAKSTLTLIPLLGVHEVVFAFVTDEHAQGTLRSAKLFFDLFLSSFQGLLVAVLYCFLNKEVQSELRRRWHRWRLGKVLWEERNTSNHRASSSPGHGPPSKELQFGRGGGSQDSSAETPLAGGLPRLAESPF

EC50 (nM), cAMP concentration in CHO cells expressing hGCGR (human glucagon receptor) [nM]	EC50 (nM), cAMP concentration in CHO cells expressing hGLP-IR (human GLP-1 receptor) [nM]	Binder
0.23	0.27	H[αMeE]QGTFTSDYSKYLDECRAKEFVQWLMNT (not fully specified) [glucagon derivative of SEQ ID NO: 13]
1.38	0.96	H[αMeE]QGTFTSDYSKYLCEKRAKEFVQWLMNT (not fully specified) [glucagon derivative of SEQ ID NO: 12]
0.38	0.17	H[αMeE]QGTFTSDYSKYLDEKCAKEFVQWLMNT (not fully specified) [glucagon derivative of SEQ ID NO: 14]
